Source: patent US20170226211A1 (AGENCY OR SCIENCE TECHNOLOGY AND RESEARCH, published 2017)
Where a chain is given by its changes, count along the chain named.

Assays:
[1] = target: T1, human CTLA-4 (human, UniProt P16410 36-161, limits assumed); experiment: cell-based or functional assay
[2] = target: T2, mouse CTLA-4 (mouse, UniProt P09793 36-161, limits assumed); experiment: affinity ELISA, antibody coated, mouse CTLA-4 titrated; 2C8 IgG1 with LALA mutation (L234A, L235A)
T2 construct: construct not described; also called murine CTLA-4; the mouse protein
Source text: (§1) The “LALA” mutation refers to mutation of leucine residues at positions 234 and […] of the of the Fc region to alanine (i.e. L234A, L235A); this mutation is known to weaken interaction between Fc and Fc-γR, and therefore to prevent ADCC activity (see e.g. Hezareh et al., J Virol (2001) 75(24):12161-12168).

[3] = target: T2, mouse CTLA-4; experiment: avidity ELISA, mouse CTLA-4 coated, antibody titrated
Method: (§2) The response curve was plotted (see FIG. 10), and EC50 was calculated.

[4] = target: T3, mouse CTLA-4 expressed on HEK-293.6E cells (mouse, UniProt P09793 36-223); experiment: flow cytometry on HEK-293.6E cells transfected with mouse CTLA-4
T3 construct: whole, on cells; also called cell surface-expressed mouse CTLA-4

[5] = target: T4, Cynomolgus/Rhesus CTLA-4 (cynomolgus/rhesus); experiment: ELISA, antibody coated, Cynomolgus/Rhesus CTLA-4 titrated
T4 construct: Printed as one protein 'Cynomolgus/Rhesus CTLA-4'

[6] = target: T5, human CTLA-4 expressed on HEK-293.6E cells (human, UniProt P16410 36-223); experiment: flow cytometry on HEK-293.6E cells transfected with human CTLA-4
T5 construct: whole, on cells; also called cell surface-expressed human CTLA-4

[7] = target: T1, human CTLA-4; experiment: avidity ELISA, human CTLA-4 coated, antibody titrated
Method: as §2

[8] = target: T2, mouse CTLA-4; experiment: affinity ELISA, antibody coated, mouse CTLA-4 titrated; 2C8 IgG1
Source text: as §1

[9] = target: T1, human CTLA-4; experiment: SPR, antibody immobilised on chip, human CTLA-4 flowed over
[10] = target: T1, human CTLA-4; experiment: affinity ELISA, antibody coated, human CTLA-4 titrated
[11] = target: T6, Human CD28 conjugated to human Fc (human, UniProt P10747 19-152); experiment: ELISA, human CD28-human Fc coated, antibody titrated
T6 construct: not shown: human Fc

[12] = target: T2, mouse CTLA-4; experiment: affinity ELISA, antibody coated, mouse CTLA-4 titrated; 2C8 IgG4
Source text: as §1

[13] = target: T1, human CTLA-4; experiment: ELISA, human CTLA-4 coated, Fab titrated
[14] = target: T6, Human CD28 conjugated to human Fc; experiment: ELISA, human CD28-Fc coated, antibody titrated
[15] = target: T1, human CTLA-4; experiment: blocking ELISA: antibody pre-incubated with human CTLA-4, binding of CTLA-4 to coated CD80 detected
[16] = target: T2, mouse CTLA-4; experiment: affinity ELISA, antibody coated, mouse CTLA-4 titrated; 2C8_gI IgG1
Source text: as §1

T1 sequence (P16410 36-161 limits assumed): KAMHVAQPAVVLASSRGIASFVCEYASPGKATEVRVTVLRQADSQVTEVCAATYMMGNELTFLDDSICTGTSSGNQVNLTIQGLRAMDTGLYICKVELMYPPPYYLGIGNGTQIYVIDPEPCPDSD
T5 sequence (P16410 36-223): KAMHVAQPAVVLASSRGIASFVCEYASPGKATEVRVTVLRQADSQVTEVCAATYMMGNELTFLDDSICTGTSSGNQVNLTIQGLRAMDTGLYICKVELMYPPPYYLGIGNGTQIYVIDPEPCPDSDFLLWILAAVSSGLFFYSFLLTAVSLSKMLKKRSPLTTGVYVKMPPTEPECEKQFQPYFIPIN

B1: 2C8 IgG1 with LALA mutation (antibody, V domains shown)
VH: QVQLQQSGPGLVKPSQTLSLTCAISGDTVSSNTAAWNWIRQSPSRGLEWLGRTYYRSKWYSDYGLSVKSRMTINADTSKNQVSLHLNSVTPEDTAVYYCAREGSGGTLIYWGQGTLVTVSS
VL: DIQLTQSPSSVSASVGDRVTITCRATQGISSWLAWYQQKPGKAPKLLIYAASSLQSGVPSRFSGSGSGTEFTLTISSLQPEDFATYYCQQANTLPLFTFGPGTKVDIK
notes: also called 2C8 with LALA mutation; 2C8 with the mutation
- EC50, T cell reactivation assay (IL-2 secretion by Jurkat T cells) [1]: 0.7 to 1.2 nM
- EC50 [2]: 5.1 nM
- EC50 [3]: 8 nM

B2: anti-CTLA-4 antibody clone 2C8, human IgG1 (antibody, V domains shown)
VH: B1 VH
VL: B1 VL
notes: also called 2C8 IgG; 2C8 IgG1
- EC50 (read off the curve) [4]: ~6 nM
- EC50 (read off the curve) [5]: ~0.3 nM
- EC50 (read off the curve) [6]: ~4 nM
- EC50 [7]: 0.0636 nM
- EC50 [8]: 9.6 nM
- Kd [9]: 9.6 nM
- EC50 [10]: 5 nM
- EC50 [3]: 4.9 nM
- binding result [11]: no binding

B3: 2C8 IgG4 (antibody, V domains shown)
VH: B1 VH
VL: B1 VL
notes: IgG4 format; also called IgG4 version of 2C8
- EC50 [12]: 7 nM
- EC50 [3]: 20.9 nM

B4: anti-CTLA-4 antibody clone 2C8, Fab (Fab, V domains shown)
VH: B1 VH
VL: B1 VL
notes: Fab from a human antibody phage display library
- EC50 (read off the curve) [13]: ~1 nM
- binding result [14]: no binding (tested: 1000 nM)
- IC50 (read off the curve) [15]: ~5 nM

B5: anti-CTLA-4 antibody clone 2C8_gI, IgG1 (antibody, V domains shown)
VH: B1 VH with T28S, M71I, A75P, V82F, H85Q
VL: B1 VL with L4M, E70D
notes: IgG1; also called germline version of the antibody
- EC50 [16]: 23.5 nM
- EC50 [3]: 77.1 nM

B6: L3D10 (commercial mouse anti-human CTLA-4 IgG1) (antibody, V domains shown)
VH: QVQLKESGPGLVAPSQSLSITCTVSGFSLTSYGLSWVRQPPGKGLEWLGVIWYDGNTNFHSALISRLTISKDNSKSQVFLELNSLQTDDTATYYCAKTEGHYYGSNYGYYALDYWGQGTSVTVSS
VL: DIQMTQSPASLSVSVGETVTITCRASENIYSNLAWYQQKQGKSPQLLVYAATNLADGVPSRFSGSGSGTQYSLKINSLQSEDFGTYFCQHLWGTPYTFGGGTKLEIK
- IC50 (read off the curve) [15]: ~1 nM
